Laboratory results taken from the supplement of paper PMC10567573.

B1: PHTF1 (parent)
chain: SRHLNSQVKKTTTRWCHIVRDSDS
B2: FUT8 (parent)
chain: YAHQPRTADEIPMEPGDIIGVAGN

Variants of: B1
Experiment: protein stability index of a GFP-peptide fusion (GPS, HEK-293T) (PSI 1-6); higher = more stable
Conditions: c terminus: a fixed tail appended
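Also: lentivirally expressed fusions sorted by FACS into six bins by GFP to DsRed ratio, PSI derived from sequencing read proportions per bin multiplied by bin number.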

Protein stability index, by site and new letter:
H17: Y 2.42 | N 2.43 | R 2.58 | M 1.91 | Q 1.71 | V 1.71 | P 2.31 | L 1.7
K9: Y 1.68 | G 2.55 | S 2.26 | P 2.71 | L 2.21 | D 2.23 | I 1.97 | H 1.81 | V 3.18 | C 2.13 | M 2.37 | A 2.48 | N 2.35
V19: E 3.71 | S 2.75 | M 2.94 | C 2.19 | F 1.55 | K 2.3 | T 3.13 | Y 2.44 | H 1.66 | A 2.8
Q7: D 2.65 | H 3.08 | P 2.69 | K 2.45 | F 1.22 | A 2.6 | C 2.08 | Y 1.68 | N 1.78 | G 1.89 | E 2.4 | V 1.4 | M 1.73
S6: A 2.29 | N 2.44 | D 2.88 | G 1.98 | Q 2.61 | I 2.22 | W 2.5 | C 1.7 | Y 2.86 | P 3.03 | T 1.83
L4: V 2.03 | R 1.95 | W 2.25 | S 2.29 | F 3.09 | N 2.05 | H 2.15
T12: S 2.62 | W 2.36 | H 1.31 | P 2.71 | F 1.66 | M 1.76 | N 1.76 | C 2.19 | I 1.93 | V 1.94 | Q 2.12
K10: Y 1.69 | V 2.71 | F 1.78 | L 1.8 | H 2.29 | N 2.72 | C 2.11 | I 1.61 | P 2.28 | R 1.8
R20: T 2.61 | V 3.11 | I 1.18 | C 1.39 | A 2.31 | D 2.27 | M 1.69 | L 2.17
S1: V 1.84 | K 2.26 | I 1.23 | A 2.52 | W 2.1 | D 3.06 | N 2.51 | G 2.06 | L 1.51 | C 2.07
H3: R 1.79 | L 2.08 | G 2.21 | A 2.23 | M 2.15 | C 1.95 | W 1.53 | N 1.69 | S 1.5 | Q 2.28
R14: F 2.04 | N 2.94 | Q 2.67 | Y 2.05 | E 3.35 | L 2.14 | D 3 | A 3.02 | I 1.94
W15: A 2.37 | R 3.94 | E 4.88 | T 3.87 | V 3.06 | H 3.53 | G 3.24 | N 3.56 | Y 3.36 | Q 4.35 | F 3.71
T11: A 3.08 | M 2.39 | R 2.12 | P 2 | Y 2.41 | K 2.16 | C 3.08 | S 1.83 | I 1.67 | N 1.79 | E 2.11 | D 2.97 | G 2.48
D21: Y 1.69 | M 1.82 | W 2.23 | T 2.79 | E 1.5 | V 1.37 | K 2.39 | S 2.14 | L 3.98 | A 2.5
T13: G 2.75 | P 1.8 | S 2.05 | W 1.82 | A 2.31 | R 2.14 | K 1.76 | H 2.02 | D 2.76 | E 2.94 | Y 1.72 | V 3.04
S22: D 1.72 | T 1.94 | Q 2.65 | W 2.08 | C 1.73 | M 2.15 | E 1.87 | F 1.86 | Y 1.94
S24: M 2.21 | Y 1.53 | V 1.88 | I 1.36 | T 2.99 | L 1.75 | K 1.92 | E 1.9 | N 2.66 | R 1.37
C16: D 3.34 | F 2.07 | Q 2.3 | G 3.53 | N 3.65 | I 1.84 | K 2.99 | E 2.34
V8: H 2.22 | I 2.35 | W 1.34 | M 2.08 | C 2.6 | Y 1.57 | K 1.79 | N 1.78 | T 2.1 | L 2.07 | G 2.57 | P 2.18
D23: S 3.1 | P 2.78 | Y 1.88 | A 2.59 | C 1.53 | E 1.99 | V 1.62 | K 1.74 | Q 1.84 | G 1.56 | N 1.99 | F 2.65 | I 2.16
I18: Y 1.74 | C 2.13 | D 3.92 | T 2.17 | N 3.3 | F 2.82 | G 3.15
R2: Q 2.4 | I 2.2 | P 1.89 | F 2.56 | D 2.3 | K 2.53 | V 1.87 | C 2.12 | N 1.87 | T 2.15
N5: I 2.73 | R 3.93 | T 2.38 | C 2.33 | W 2.27 | A 2.19 | F 2.02 | L 1.92 | E 1.59 | H 2.56 | V 1.29 | S 1.92 | P 2.22 | Y 2.16

Variants of: B2
Experiment: as above
Conditions: c terminus: a fixed tail appended

Protein stability index of substitutions, site by site:
I18: Y 3.63 | C 3.01 | K 4.56 | T 4.2
I11: L 3.47 | K 4.27 | C 4.26 | N 4.26
E14: N 3.25 | P 3.12 | F 2.46 | C 3.32 | W 2.1
P5: C 3.72 | I 3.4 | F 3.11 | V 3.92
I19: Y 4.06 | V 4.17 | G 4.34
T7: A 4.18
E10: I 2.99 | A 3.67
P12: C 3.48 | S 4.08 | W 2.4
H3: A 4.56 | P 2.92 | M 3.99
V21: Y 3.82 | M 3.68 | S 4.05
P15: W 2.2 | E 4.57 | A 4.38 | R 4.23 | G 4.16
D17: Y 2.68 | R 3.45
D9: A 3.53 | F 2.68 | I 2.6 | L 3.1
R6: V 4.44 | C 4.05 | F 3.46
M13: N 4.46 | H 4.33
A8: Y 3.15 | C 3.44
G16: W 2.12 | C 3.5 | K 3.75 | E 4.26
Q4: D 4.36 | W 1.98 | H 3.92 | A 4.07 | E 4.61
G23: H 3.99 | N 3.63
N24: R 3.5 | K 3.62 | A 3.95 | S 4.17 | T 4.13 | Q 4.03
A22: D 4.19 | V 3.26
A2: C 4.03 | E 5.05 | D 5.06 | F 4.45 | V 2.39 | Y 4.3 | K 4.51
G20: N 4.29 | R 3.56 | F 3.55 | W 2.08 | C 3.73 | A 4.26
Y1: H 5.37 | I 5.16 | E 4.92
